Assay results as given in publication PMC9122598, “NASP maintains histone H3–H4 homeostasis through two distinct H3 binding modes” (Nucleic Acids Research, 2022).

Assays:
[1] = target: frog NASP.Sc dimer (X. laevis NASP.S a.a. 23–495, Δ97–314; 'NASP.S core') (Xenopus laevis) (UniProt P06180); test: SEC-MALS; single purified protein on Superdex 200 Increase 10/300 GL; 20 mM Tris pH 7.5, 0.5 M NaCl; room temperature
[2] = target: sNASPc dimer (human sNASP a.a. 30–340, Δ101–159; 'sNASP core') (human) (UniProt P49321); test: as above
[3] = target: Histone H3 (MBP fusion) 116-135 (Homo sapiens) (UniProt P68431); conditions: cited from earlier work

Sequence of sNASP (P49321 2-788): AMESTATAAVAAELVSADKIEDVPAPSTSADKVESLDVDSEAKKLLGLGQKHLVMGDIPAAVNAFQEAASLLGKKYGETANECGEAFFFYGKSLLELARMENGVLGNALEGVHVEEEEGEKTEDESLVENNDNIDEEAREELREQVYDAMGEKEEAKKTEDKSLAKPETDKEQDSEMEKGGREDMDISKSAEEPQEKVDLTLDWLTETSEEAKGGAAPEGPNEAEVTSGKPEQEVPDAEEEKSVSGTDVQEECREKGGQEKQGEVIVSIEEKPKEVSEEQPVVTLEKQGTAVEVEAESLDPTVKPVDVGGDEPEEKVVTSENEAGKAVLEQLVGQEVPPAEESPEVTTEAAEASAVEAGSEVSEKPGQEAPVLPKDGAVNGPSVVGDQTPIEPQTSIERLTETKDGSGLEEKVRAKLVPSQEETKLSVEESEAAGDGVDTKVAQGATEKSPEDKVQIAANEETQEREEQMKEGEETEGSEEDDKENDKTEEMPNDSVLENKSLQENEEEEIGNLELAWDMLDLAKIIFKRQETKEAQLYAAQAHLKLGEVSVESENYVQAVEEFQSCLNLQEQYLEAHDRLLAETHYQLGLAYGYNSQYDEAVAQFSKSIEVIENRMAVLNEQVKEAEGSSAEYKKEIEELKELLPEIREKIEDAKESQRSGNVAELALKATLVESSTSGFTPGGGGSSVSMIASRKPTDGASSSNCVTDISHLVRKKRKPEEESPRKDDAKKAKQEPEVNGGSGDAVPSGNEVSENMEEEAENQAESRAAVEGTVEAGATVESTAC

With “frog NASP.Sc dimer (X. laevis NASP.S a.a. 23–495, Δ97–314; 'NASP.S core') (from UniProt P06180 23-495) (domain or fragment)” as the substance, how does the stoichiometry N [1] read?
The stoichiometry N was 2.

With “sNASPc dimer (human sNASP a.a. 30–340, Δ101–159; 'sNASP core') (from UniProt P49321-2 30-340) (domain or fragment)” as the substance, how does the stoichiometry N [2] read?
Its stoichiometry N is 2.

For sNASP (from UniProt P49321), which Kd [3] is on record?
The Kd was 61 nM.
